Source: patent US20070218069A1 (published 2007)

Target: T1, K48-linked diubiquitin (human, UniProt P0CG48 1-76, isopeptide bond between Lys48 of one ubiquitin and the C-terminal Gly of the other)
T1 construct: Boston Biochem
Assay: SPR Biacore, antigen immobilized

Kd [nM]	koff [s⁻¹]	kon [M⁻¹ s⁻¹]	Binder
12.7	0.00696	546000	Fab apu02 (Fab, V domains shown) VH: EVQLVESGGGLVQPGGSLRLSCAASGFNVSYSYMHWVRQAPGKGLEWVASISSYYSYTSYADSVKGRFTISADTSKNTAYLQMNSLRAEDTAVYYCARSYSYYSAIDYWGQGTLVTVSS VL: DIQMTQSPSSLSASVGDRVTITCRASQSVSSAVAWYQQKPGKAPKLLIYSASSLYSGVPSRFSGSRSGTDFTLTISSLQPEDFATYYCQQSSYSSLFTFGQGTKVEIK
139	0.016	115000	Fab apu13 (Fab, V domains shown) VH: EVQLVESGGGLVQPGGSLRLSCAASGFNVSYYSIHWVRQAPGKGLEWVASIYPYYSYTSYADSVKGRFTISADTSKNTAYLQMNSLRAEDTAVYYCARSYSYSYGLDYWGQGTLVTVSS VL: DIQMTQSPSSLSASVGDRVTITCRASQSVSSAVAWYQQKPGKAPKLLIYSASSLYSGVPSRFSGSRSGTDFTLTISSLQPEDFATYYCQQYSSSYYPFTFGQGTKVEIK
19.6	0.0177	904000	Fab apu11 (Fab, V domains shown) VH: EVQLVESGGGLVQPGGSLRLSCAASGFNVSYYYIHWVRQAPGKGLEWVASISSYYGYTSYADSVKGRFTISADTSKNTAYLQMNSLRAEDTAVYYCARENYWWAIDYWGQGTLVTVSS VL: DIQMTQSPSSLSASVGDRVTITCRASQSVSSAVAWYQQKPGKAPKLLIYSASSLYSGVPSRFSGSRSGTDFTLTISSLQPEDFATYYCQQSYYYYPITFGQGTKVEIK
9.49	0.00993	1.05e+06	Fab apu07 (Fab, V domains shown) VH: EVQLVESGGGLVQPGGSLRLSCAASGFNLSYSYIHWVRQAPGKGLEWVASISSYYGSTSYADSVKGRFTISADTSKNTAYLQMNSLRAEDTAVYYCARESFYYSPAFDYWGQGTLVTVSS VL: DIQMTQSPSSLSASVGDRVTITCRASQSVSSAVAWYQQKPGKAPKLLIYSASSLYSGVPSRFSGSRSGTDFTLTISSLQPEDFATYYCQQSYYYSLFTFGQGTKVEIK

Target: T1, K48-linked diubiquitin
Assay: SPR Biacore, antigen immobilized
Remark: another data set of the same source

Binder	Kd [nM]	koff [s⁻¹]	kon [M⁻¹ s⁻¹]
Fab apu2.04 (Fab, V domains shown) VH: EVQLVESGGGLVQPGGSLRLSCAASGFNISYSSMHWVRQAPGKGLEWVASIYSYYSYTSYADSVKGRFTISADTSKNTAYLQMNSLRAEDTAVYYCARSYSYSFGMDYWGQGTLVTVSS VL: DIQMTQSPSSLSASVGDRVTITCRASQSVSSAVAWYQQKPGKAPKLLIYSASSLYSGVPSRFSGSRSGTDFTLTISSLQPEDFATYYCQQSSYSSLITFGQGTKVEIK	15.1	0.00939	622000
Fab apu2.03 (Fab, V domains shown) VH: EVQLVESGGGLVQPGGSLRLSCAASGFNISYSSMHWVRQAPGKGLEWVASIYSYYSYTSYADSVKGRFTISADTSKNTAYLQMNSLRAEDTAVYYCARSYSYSLAFDYWGQGTLVTVSS VL: DIQMTQSPSSLSASVGDRVTITCRASQSVSSAVAWYQQKPGKAPKLLIYSASSLYSGVPSRFSGSRSGTDFTLTISSLQPEDFATYYCQQSSYSSLITFGQGTKVEIK	3.07	0.00266	867000
Fab apu2.05 (Fab, V domains shown) VH: EVQLVESGGGLVQPGGSLRLSCAASGFNISYSSMHWVRQAPGKGLEWVASIYSYYSYTSYADSVKGRFTISADTSKNTAYLQMNSLRAEDTAVYYCARSYSYRMAFDYWGQGTLVTVSS VL: DIQMTQSPSSLSASVGDRVTITCRASQSVSSAVAWYQQKPGKAPKLLIYSASSLYSGVPSRFSGSRSGTDFTLTISSLQPEDFATYYCQQSSYSSLITFGQGTKVEIK	5.06	0.00609	1.2e+06
Fab apu2.02 (Fab, V domains shown) VH: EVQLVESGGGLVQPGGSLRLSCAASGFNIFYGGIHWVRQAPGKGLEWVASIYSYYSYTSYADSVKGRFTISADTSKNTAYLQMNSLRAEDTAVYYCARSYSYYSAMDYWGQGTLVTVSS VL: DIQMTQSPSSLSASVGDRVTITCRASQSVSSAVAWYQQKPGKAPKLLIYSASSLYSGVPSRFSGSRSGTDFTLTISSLQPEDFATYYCQQSSYSSLITFGQGTKVEIK	9.16	0.0101	1.11e+06
Fab apu2.01 (Fab, V domains shown) VH: EVQLVESGGGLVQPGGSLRLSCAASGFNISYSSMHWVRQAPGKGLEWVASIYSYYSYTSYADSVKGRFTISADTSKNTAYLQMNSLRAEDTAVYYCARSYSYSEALDYWGQGTLVTVSS VL: DIQMTQSPSSLSASVGDRVTITCRASQSVSSAVAWYQQKPGKAPKLLIYSASSLYSGVPSRFSGSRSGTDFTLTISSLQPEDFATYYCQQSSYSSLITFGQGTKVEIK	23.5	0.0149	633000
Fab apu2.06 (Fab, V domains shown) VH: EVQLVESGGGLVQPGGSLRLSCAASGFNISYSSMHWVRQAPGKGLEWVASIYSYYSYTSYADSVKGRFTISADTSKNTAYLQMNSLRAEDTAVYYCARGYSWFNAIDYWGQGTLVTVSS VL: DIQMTQSPSSLSASVGDRVTITCRASQSVSSAVAWYQQKPGKAPKLLIYSASSLYSGVPSRFSGSRSGTDFTLTISSLQPEDFATYYCQQSSYSSLITFGQGTKVEIK	1.87	0.0024	1.28e+06
Fab apu2.07 (Fab, V domains shown) VH: EVQLVESGGGLVQPGGSLRLSCAASGFNISYSSMHWVRQAPGKGLEWVASIYSYYSYTSYADSVKGRFTISADTSKNTAYLQMNSLRAEDTAVYYCARSYSYHLGMDYWGQGTLVTVSS VL: DIQMTQSPSSLSASVGDRVTITCRASQSVSSAVAWYQQKPGKAPKLLIYSASSLYSGVPSRFSGSRSGTDFTLTISSLQPEDFATYYCQQSSYSSLITFGQGTKVEIK	1.18	0.00318	2.7e+06

Other lines, results leading:

Kd [nM]	koff [s⁻¹]	kon [M⁻¹ s⁻¹]	Binder
1.21	0.00399	3.28e+06	Fab apu2.10 (Fab, V domains shown) VH: EVQLVESGGGLVQPGGSLRLSCAASGFNISYSSMHWVRQAPGKGLEWVASIYSYYSYTSYADSVKGRFTISADTSKNTAYLQMNSLRAEDTAVYYCARSYSYFLAMDYWGQGTLVTVSS VL: DIQMTQSPSSLSASVGDRVTITCRASQSVSSAVAWYQQKPGKAPKLLIYSASSLYSGVPSRFSGSRSGTDFTLTISSLQPEDFATYYCQQSSYSSLITFGQGTKVEIK
5.76	0.00721	1.25e+06	Fab apu2.08 (Fab, V domains shown) VH: EVQLVESGGGLVQPGGSLRLSCAASGFNISYSSMHWVRQAPGKGLEWVASIYSYYSYTSYADSVKGRFTISADTSKNTAYLQMNSLRAEDTAVYYCARSYSYSVGMDYWGQGTLVTVSS VL: DIQMTQSPSSLSASVGDRVTITCRASQSVSSAVAWYQQKPGKAPKLLIYSASSLYSGVPSRFSGSRSGTDFTLTISSLQPEDFATYYCQQSSYSSLITFGQGTKVEIK
6.69	0.00478	715000	Fab apu2.09 (Fab, V domains shown) VH: EVQLVESGGGLVQPGGSLRLSCAASGFNISYSSMHWVRQAPGKGLEWVASIYSYYSYTSYADSVKGRFTISADTSKNTAYLQMNSLRAEDTAVYYCARSYSYHVAFDYWGQGTLVTVSS VL: DIQMTQSPSSLSASVGDRVTITCRASQSVSSAVAWYQQKPGKAPKLLIYSASSLYSGVPSRFSGSRSGTDFTLTISSLQPEDFATYYCQQSSYSSLITFGQGTKVEIK
